From article PMC12647017, “Discovery and optimization of a synthetic small protein domain targeting antibodies” (Frontiers in Bioengineering and Biotechnology, 2025) come the findings set out here.

One data set relates to hIgG. As to the kind of experiment: ELISA of soluble fractions of native and mutated WW domains against hIgG. In kind it is binding. Conditions: human IgG, soluble fraction, ABTS. Here is the method:
The soluble fraction of 100 mL cultures (100 μL) was used for ELISA against hIgG, as described in ([Dias et al., 2025]). Briefly, the target hIgG was immobilized (1 μg/well) in 0.1 M Sodium Bicarbonate pH 8.6 in Immuno Maxisorp ELISA plates (Thermo Fisher), overnight at 4 °C. In the next day, the unbound hIgG was removed, and the wells washed with PBS1x. To the wells was added the blocking solution – 5% (v/v) Soya Milk in PBS 1x and incubated for 1 h at room temperature. The wells were washed and incubated with 100 µL of soluble fraction (∼0.065 mg/mL total protein) at room temperature for 2 h.
The unbound WW domains were removed, and the wells were washed using 4 times PBS1x-0.05% Tween 20 and 1 time with PBS1x. For detection was used 1:1,000 anti-His-HRP conjugated antibody (MA1-21315-HRP, Invitrogen) in 1% (v/v) Soya Milk in PBS1x and incubated for 1 h at RT, after that the wells were washed with 5x PBS1x. The detection occurred with ABTS (2,2′-azino-bis(3-ethylbenzothiazoline-6-sulfonic acid) ready solution (11684302001, Roche), which was incubated in the dark for 1 h at 37 °C. Finally, the results were analysed in a microplate reader (Tecan) with appropriate filter at Abs405nm.
Figure S6 – Production and signal characterization of mutated versions. A – Tris-Tricine gels after cell lysis of the WW prototype sequence (WWp, band at ~8KDa), mutated WWp5_4 scaffold (WWp5_4_M2, band at ~8 kDa) and mutated E6 (E6_M2, band at ~ 12kDa). Samples were normalized 90µg total protein/lane. M - Precision Plus Protein™ Dual Xtra Prestained, Biorad; SF – soluble fraction; ISF – insoluble fraction. B1, B2, and B3 indicate production batchs in 1L culture, except for WWp B1 – 100 mL, WWp_5_4 B2 – 900 mL. Stained with Simplyblue. […] The detection of the clones was made with anti-His conjugated antibody with HRP and detected with ABTS as substrate.
Figure S7 – Comparison between ELISA signal of E6 versus E6_M2. […] The expression levels were detected by direct coating of the microplate well with the soluble fraction of the extract. […] All were detected with ABTS as substrate.

Data set [1] in a line: Solubility / precipitation observed during production, dialysis and purification. In kind it is physicochemical. Here is the method: Therefore, after expression the soluble fractions were further centrifuged at 42,000 g for 20 min at 4 °C. As the samples were diluted (∼5 mg/mL in 25 mL lysis buffer), the soluble fractions were lyophilized and resuspended in 4 mL of water. The samples were dialyzed (Membranes Spectra Pre-Treated 1 kDa, Carl Roth) to Binding buffer without imidazole (20 mM Sodium Phosphate, 500 mM Sodium Chloride pH 7.4) for 24 h at 16 °C. The samples were quantified by […] (typically ∼6 mg/mL), this solution was diluted 1:2 in Binding buffer (20 mM Sodium Phosphate, 500 mM Sodium Chloride, 20 mM imidazole pH 7.4) and purified in a gravitational flow with 6 mL of resin (IMAC Sepharose 6 Fast Flow (Ni^2+), Cytiva) packed in a PD-10 column. The column was prepared using the indications of the manufacturer. The binding of the protein to the column was maximized by an incubation for 1 h at room temperature in agitation at 40rpm. The resin was washed 4 x column volumes (CV) with binding buffer. The elution as achieved by incubation for 15min with elution buffers. We used a gradient with 3 x CV elution buffer 1 (binding buffer with 100 mM imidazole) and 3 x CV elution buffer 2 (binding buffer with 200 mM imidazole).
The most enriched elutions in WW domains (60%–70% purity) were combined and dialysed against PBS1x (10 mM Na2HPO4, 1.8 mM KH2PO4, 2.7 mM KCl, 137 mM NaCl pH 7.4) with routine changes of buffer up to 48 h at 16 °C. Following the samples were concentrated with a Amicon-Ultra15 3 kDa MWCO (Millipore) with centrifugation conditions 4,900 g, 30 min, 4 °C. The final samples were quantified by BCA assay.
Size Exclusion Chromatography (SEC). The samples were further purified by SEC to achieve 90% purity in a AKTA system (Cytiva). The column Superdex 75 Increase 10/300 GL (29148721, Cytiva) was washed with water and equilibrated 2CV in PBS1x, as described by the manufacturer. As calibrants we prepare a mixture: 2 mg/mL of Bovine Serum Albumin (66 kDa, BP9702-100, FisherScientific), Ovalbumin (42 kDa, A5503-1G, Sigma), Chicken Lysozyme ([…], 62,971–10G-F, Fluka) and hPin1_WW chemically synthesized (5 kDa, produced in ([Dias et al., 2015])) in PBS 1x, this sample was filtered with 0.2 µm PES (514–0073, VWR) and analysed. The operation conditions: flow 0.5 mL/min, 0.05 CV in PBS1x and injection of 250 µL and run for 2 CV with PBS 1x at 16 °C. The same method was used for the WW domain samples. After purifications samples were quantified for total protein by BCA assay, as described previously and used for characterization.

For data set [2], the target named is human IgG conjugated with fluorescein isothiocyanate (IgG-FITC) (human). The experiment in a line: MST; hIgG-FITC (Sigma F9636) fixed at 25 nM; 16 samples of E6_M2_T2 from 695 nM in 1:2 serial dilution; PBS, 0.05% Tween-20, pH 7.4; 25 C; fit models Kd and Hill.
Data set [3] shares this target. As to the kind of experiment: MST; IgG-FITC fixed at 50 nM; 16 serial dilutions of E6 from 23.5 uM to 0.7 nM; 50 mM MOPS, 0.05% Tween-20, pH 7; 25 C; fit models Kd and Hill.

Take “C S GK LPPGW E E R KTRRFKLG R TYYYNHHILSKTS Q W EH PR G SS [Clone E6_M2, E6 with mutated framework and N-terminal Cys]”: the “binding signal relative to negative control (E. coli Rosetta extract)” value in the data set with hIgG (E6 detected with anti-HA-HRP, E6_M2 and Rosetta extract with anti-His-HRP) came out at 2 times. For the same molecule, the “binding signal relative to scaffold framework (WWp5_4)” value in the data set with hIgG (anti-His-HRP, Abs405nm) stood at 2 times. Also, the “solubility compared with native counterpart E6” value in data set [1] (IMAC purification without chaotropic agents) is “higher solubility than the native counterpart”. For the same molecule, the “precipitation / solubility after dialysis” value in data set [1] (dialysis against PBS1x pH 7.4, up to 48 h at 16 °C) was “some precipitation”.

B1: E6_M2_T2 (head-to-tail dimer of E6_M2) (designed binder)
chain: CSGKLPPGWEERKTRRFKLGRTYYYNHHILSKTSQWEHPRGSSSGKLPPGWEERKTRRFKLGRTYYYNHHILSKTSQWEHPRGSS
With B1, in data set [2], the EC50 is 157 nM and the Kd worked out at 62 nM.
In the case of SMGLPPGWDEYKTRRFKLGKTYYYNHHILSKTSTWTDPRMSS (designed binder) [E6 (lead ligand, WWp5_4 scaffold), without tag], in data set [3], the EC50 was determined as 146 nM and the Kd is 133 nM.
